Data on eight molecules can be found in publication PMC3897377, “Utilizing Nanobody Technology to Target Non-Immunodominant Domains of VAR2CSA” (PLoS ONE, 2014).

B1: Nb11 (VHH)
VHH: QVQLQESGGGLVQAGGSLRLSCAASGRTFSSYAMGWFRQAPGREREFVALISWSGGSTTYADSVKGRFTISRDNAQNTVYLQMNSLKPEDTAVYYCTAAGSFEGEYDYWGQGTQVTVSS
notes: from an alpaca immunized with full-length VAR2CSA; pHEN6c vector; also called Nanobody 11; VHH; source: E. coli WK6, periplasmic extract, purified (HisTrap); not shown: His6, C-terminal, kept
B2: Nb02 (VHH)
VHH: B1 VHH with R43K, L50F, T59S, Q76K, T97V, A99S
notes: from an alpaca immunized with full-length VAR2CSA; pHEN6c vector; also called Nanobody 02; VHH; source: E. coli WK6, periplasmic extract, purified (HisTrap); not shown: His6, C-terminal, kept
B3: Nb13 (VHH)
VHH: QVQLQESGGGLVQPGGSLRLSCAFSGRTSRNYAMAWFRQAPGKEREFVAATSWNGDITPYGVVVKGRFTISRDNAKSTVYLKMNDLKPEDTAVYYCAAEPRFAPPVVAHEYDYWGRGTQVTVSS
notes: from an alpaca immunized with full-length VAR2CSA; pHEN6c vector; also called Nanobody 13; VHH; source: E. coli WK6, periplasmic extract, purified (HisTrap); not shown: His6, C-terminal, kept
B4: Nb05 (VHH)
VHH: QVQLQESGGGLVQPRGSLRLSCTASERDFGLVVMGWHRQAPGKQRELVAQIGTGGRTNYADSVKGRFTISIDAAKNTVYLQMNNLKPEDTAVYYCNAPLSGIWGQGTQVTVSS
notes: from an alpaca immunized with full-length VAR2CSA; pHEN6c vector; also called Nanobody 05; VHH; source: E. coli WK6, periplasmic extract, purified (HisTrap); not shown: His6, C-terminal, kept
B5: Nb14 (VHH)
VHH: QVQLQESGGGLVQAGGSLRLSCAASGFTLDDYGIGWFRQAPGKEHEGVSSISSGDGSTYYADSVKGRFTISSDNAKNTVYLQNSLKPEDTAVYYCAAGGLHRPLTIATTRGYGIDYWGKGTQVTVSS
notes: from an alpaca immunized with full-length VAR2CSA; pHEN6c vector; also called Nanobody 14; VHH; source: E. coli WK6, periplasmic extract, purified (HisTrap); not shown: His6, C-terminal, kept
B6: Nb03 (VHH)
VHH: QVQLQESGGGLVQAGGSLRLSCVVSGHTFSGYVMGWFRQAPGKEREFVSSISGYGGITDYADSVKGRFTMSRDNAKNTVYLRMNSLKPEDTAVYYCAVRRSGSSREYDYWGQGTQVTVSS
notes: from an alpaca immunized with full-length VAR2CSA; pHEN6c vector; also called Nanobody 03; VHH; source: E. coli WK6, periplasmic extract, purified (HisTrap); not shown: His6, C-terminal, kept
B7: Nb16 (VHH)
VHH: QVQLQESGGGLVQPGGSLRLSCVASGFTFSSVGSWVRQAPGKGLEWVSAISSFSGLRSYADSVKGRFTISRDNAKNTLYLENSLKPEDTAVYYCAKGTVRVGPWLRGQGTQVTVSS
notes: from an alpaca immunized with full-length VAR2CSA; pHEN6c vector; also called Nanobody 16; VHH; source: E. coli WK6, periplasmic extract, purified (HisTrap); not shown: His6, C-terminal, kept
B8: Nb17 (VHH)
VHH: QVQLQESGGGLVQPGGSLRLSCAASGFTFSGSASWVRQAPGKELEWVSSISGFGGITDYADSVKGRFTISRDNSKNTLYLQNSLKPEDTAVYYCAKGRTGWTSSFLRGQGTQVTVSS
notes: from an alpaca immunized with full-length VAR2CSA; pHEN6c vector; also called Nanobody 17; VHH; source: E. coli WK6, periplasmic extract, purified (HisTrap); not shown: His6, C-terminal, kept

Changes are numbered by the printed parent chain.

One assay deals with T1, VAR2CSA DBL3 domain, baculovirus-produced (Plasmodium falciparum FCR3 (implied), UniProt Q6UDW7, strain).
T1 construct: DBL3 domain; also called DBL3X; source: baculovirus expression system, as described in [11], [20]
Kind of assay: ELISA; recombinant VAR2CSA protein or domain (50 nM in PBS) coated on MaxiSorp plates overnight at 4°C; Nb 50 nM in 1% skim milk in PBS, 90 min RT; detected with rabbit anti-camel and HRP anti-rabbit, OD 490 nm after 20 min. The following applies: both partners purified. Background: ELISA stands for enzyme-linked immunosorbent assay.
B1: the binding result is “no binding (tested: 50 nM)”.

B2: the binding result is recorded as “no binding (tested: 50 nM)”.

As for B3, the binding result is “no binding (tested: 50 nM)”.

Take B4: the binding result is on record as “no binding (tested: 50 nM)”.

Take B5: the binding result was “no binding (tested: 50 nM)”.

On to B6, for which the binding result is on record as “no binding (tested: 50 nM)”.

On to B7, for which the binding result is recorded as “no binding (tested: 50 nM)”.

B8: the binding result is on record as “no binding (tested: 50 nM)”.

In a further assay the target is T2, full-length VAR2CSA (FV2) recombinant protein, FCR3 (Plasmodium falciparum FCR3, UniProt Q6UDW7, strain).
T2 construct: VAR2CSA (PfEMP1 family), Plasmodium falciparum strain FCR3, full-length recombinant protein; also called FV2-FCR3; source: recombinant, purified, expressed as described in [33]
The assay is described as above. The following applies: both partners purified.
On to B1, for which the binding result is on record as “binds”.

Turning to B2, the binding result is recorded as “binds”.

As to B3, the binding result was “binds”.

For B4, the binding result was “binds”.

Consider B5, for which the binding result was “binds”.

For B6, the binding result is “binds”.

As for B7, the binding result is “binds”.

With B8, the binding result is “binds”.

The target of another assay is T3, native VAR2CSA on the surface of NF54 infected erythrocytes (Plasmodium falciparum NF54 (VAR2CSA …, UniProt Q8I639, strain)).
T3 construct: VAR2CSA of the P. falciparum parasite line NF54, native protein on infected erythrocytes; also called VAR2CSA-expressing IE (NF54); source: endogenous, on P. falciparum NF54-infected erythrocytes
Kind of assay: flow cytometry on cells; late stage VAR2CSA-expressing IE (FCR3, 7201, NF54) incubated with Nb (0,1 mg/ml), 30 min at 4°C; detected with mouse anti-penta-His and FITC anti-mouse; specific recognition defined by an MFI ratio >1.2. To be noted: one partner purified. For orientation: Flow cytometry measures light scatter and fluorescence of single cells or particles in a stream.
Take B1: the binding result is “binds”.

For the molecule B2, the binding result is on record as “binds”.

B4: the binding result was “binds”.

On to B5, for which the binding result is “binds”.

On to B6, for which the binding result was “binds”.

For B7, the binding result is given as “binds”.

In the case of B8, the binding result is listed as “binds”.
